Test results from IntAct's records for PubMed 19587294.

B1: Tetraspanin-12 (Homo sapiens), O95859 (parent)
chain: MAREDSVKCLRCLLYALNLLFWLMSISVLAVSAWMRDYLNNVLTLTAETRVEEAVILTYFPVVHPVMIAVCCFLIIVGMLGYCGTVKRNLLLLAWYFGSLLVIFCVELACGVWTYEQELMVPVQWSDMVTLKARMTNYGLPRYRWLTHAWNFFQREFKCCGVVYFTDWLEMTEMDWPPDSCCVREFPGCSKQAHQEDLSDLYQEGCGKKMYSFLRGTKQLQVLRFLGISIGVTQILAMILTITLLWALYYDRREPGTDQMMSLKNDNSQHLSCPSVELLKPSLSRIFEHTSMANSFNTHFEMEEL

Variants of: B1
Settings: with ada10_human ADAM10, O14672
Sequence of ada10_human ADAM10, O14672 (O14672 whole entry): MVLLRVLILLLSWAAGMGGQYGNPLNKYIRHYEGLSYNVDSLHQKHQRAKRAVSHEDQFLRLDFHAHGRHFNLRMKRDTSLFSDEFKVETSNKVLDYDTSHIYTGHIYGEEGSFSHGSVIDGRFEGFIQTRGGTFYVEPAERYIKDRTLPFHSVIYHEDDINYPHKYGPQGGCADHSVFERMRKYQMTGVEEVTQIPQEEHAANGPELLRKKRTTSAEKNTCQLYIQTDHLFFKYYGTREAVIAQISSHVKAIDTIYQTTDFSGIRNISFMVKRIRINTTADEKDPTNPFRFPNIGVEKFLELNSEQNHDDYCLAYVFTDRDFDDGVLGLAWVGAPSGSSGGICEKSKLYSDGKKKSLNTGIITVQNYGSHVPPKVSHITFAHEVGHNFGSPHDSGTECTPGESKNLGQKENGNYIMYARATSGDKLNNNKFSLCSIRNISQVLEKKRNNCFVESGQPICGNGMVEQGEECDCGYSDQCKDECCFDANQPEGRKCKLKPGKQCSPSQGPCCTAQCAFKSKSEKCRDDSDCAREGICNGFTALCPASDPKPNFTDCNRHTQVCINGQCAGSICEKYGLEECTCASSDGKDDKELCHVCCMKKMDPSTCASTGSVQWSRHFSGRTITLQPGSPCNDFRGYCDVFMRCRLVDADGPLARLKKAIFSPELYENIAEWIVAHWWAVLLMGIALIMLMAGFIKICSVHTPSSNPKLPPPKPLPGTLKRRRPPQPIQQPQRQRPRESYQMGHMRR

| effect of a mutation on the interaction | Variant |
| --- | --- |
| decreasing interaction strength | MAREDSVKCLRCLLYALNLLFWLMSISVLAVSAWMRDYLNNVLTLTAETRVEEAVILTYFPVVHPVMIAVCCFLIIVGMLGYCGTVKENLLLLAWYFGSLLVIFCVELACGVWTYEQELMVPVQWSDMVTLKARMTNYGLPRYRWLTHAWNFFQREFKCCGVVYFTDWLEMTEMDWPPDSCCVREFPGCSKQAHQEDLSDLYQEGCGKKMYSFLRGTKQLQVLRFLGISIGVTQILAMILTITLLWALYYDRREPGTDQMMSLKNDNSQHLSCPSVELLKPSLSRIFEHTSMANSFNTHFEMEEL [R88E] |
| disrupting interaction strength | MAREDSVKSLRSLLYALNLLFWLMSISVLAVSAWMRDYLNNVLTLTAETRVEEAVILTYFPVVHPVMIAVCCFLIIVGMLGYSGTVKRNLLLLAWYFGSLLVIFCVELACGVWTYEQELMVPVQWSDMVTLKARMTNYGLPRYRWLTHAWNFFQREFKCCGVVYFTDWLEMTEMDWPPDSCCVREFPGCSKQAHQEDLSDLYQEGCGKKMYSFLRGTKQLQVLRFLGISIGVTQILAMILTITLLWALYYDRREPGTDQMMSLKNDNSQHLSCPSVELLKPSLSRIFEHTSMANSFNTHFEMEEL [C9S;C12S;C83S] |
